Assays:
CXCL12 (SDF1α) [1] = target: T1, CXCL12 (SDF1α) (UniProt P48061-2 22-89); assay: SPR; high-activity fraction (kd2)
CXCL12 (SDF1α) [2] = target: T1, CXCL12 (SDF1α); assay: SPR; low-activity fraction (KD1, heterogeneous ligand model)
CXCL12 (SDF1α) [3] = target: T1, CXCL12 (SDF1α); assay: SPR; high-activity fraction (KD2, heterogeneous ligand model)
CXCL12 (SDF1α) [4] = target: T1, CXCL12 (SDF1α); assay: SPR; low-activity fraction (kd1)

T1 sequence (P48061 22-89): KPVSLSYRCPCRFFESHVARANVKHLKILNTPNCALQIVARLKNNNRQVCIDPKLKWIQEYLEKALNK

| Binder | koff (CXCL12 (SDF1α) [1]) [s⁻¹] | Kd (CXCL12 (SDF1α) [2]) [nM] | Kd (CXCL12 (SDF1α) [3]) [nM] | koff (CXCL12 (SDF1α) [4]) [s⁻¹] |
| --- | --- | --- | --- | --- |
| CXCR4^QTY29 with C-terminal GSSG linker and rho1D4 tag (receptor) MEGISIYTSDNYTEEMGSGDYDSMKEPCFREENANYNKTFLPTIYSIIYQTGTVGNGLVILVMGYQKKLRSMTDKYRLHLSTADLQFVTTLPYWATDATANWYFGNFLCKAVHVIYTVNLYSSVLILAFISLDRYLAIVHATNSQRPRKLLAEKVVYVGVWTPAQLLTTPDYTFANVSEADDRYICDRFYPNDLWVVVFQFQHIMVGLILPGIVILSCYCIIISKLSHSKGHQKRKALKTTTTLIQAFFACWQPYYTGISIDSYILLEIIKQGCEFENTVHKWISTTEAQAFYHCCTNPTQYAYLGAKFKTSAQHALTSVSRGSSLKILSKGKRGGHSSVSTESESSSFHSS | 0.00171 | 1660 | 29 | 0.0356 |
| native CXCR4 with C-terminal GSSG linker and rho1D4 tag (receptor) MEGISIYTSDNYTEEMGSGDYDSMKEPCFREENANFNKIFLPTIYSIIFLTGIVGNGLVILVMGYQKKLRSMTDKYRLHLSVADLLFVITLPFWAVDAVANWYFGNFLCKAVHVIYTVNLYSSVLILAFISLDRYLAIVHATNSQRPRKLLAEKVVYVGVWIPALLLTIPDFIFANVSEADDRYICDRFYPNDLWVVVFQFQHIMVGLILPGIVILSCYCIIISKLSHSKGHQKRKALKTTVILILAFFACWLPYYIGISIDSFILLEIIKQGCEFENTVHKWISITEALAFFHCCLNPILYAFLGAKFKTSAQHALTSVSRGSSLKILSKGKRGGHSSVSTESESSSFHSS | 0.00159 | 437 | 56.3 | 0.0375 |

Source: publication PMC7721705 (2020)
